Results on one substance are retold here after paper PMC8225672.

The target of test [1] is Human GHSR (growth hormone secretagogue receptor, ghrelin receptor), purified and inserted into lipid nanodiscs (human) (UniProt Q92847). In words: FRET or BRET; competition: time-resolved energy transfer between purified GHSR labeled with Lumi4-Tb at its N-terminus and dy647-labeled ghrelin (0.1 µM range), increasing competitor; GHSR in 17 nm nanodiscs (cNW30 scaffold); isolated receptor without G protein. Background: Bioluminescence resonance energy transfer reports proximity on the nanometre scale.
UniProt Q92847, sequence (Q92847 whole entry): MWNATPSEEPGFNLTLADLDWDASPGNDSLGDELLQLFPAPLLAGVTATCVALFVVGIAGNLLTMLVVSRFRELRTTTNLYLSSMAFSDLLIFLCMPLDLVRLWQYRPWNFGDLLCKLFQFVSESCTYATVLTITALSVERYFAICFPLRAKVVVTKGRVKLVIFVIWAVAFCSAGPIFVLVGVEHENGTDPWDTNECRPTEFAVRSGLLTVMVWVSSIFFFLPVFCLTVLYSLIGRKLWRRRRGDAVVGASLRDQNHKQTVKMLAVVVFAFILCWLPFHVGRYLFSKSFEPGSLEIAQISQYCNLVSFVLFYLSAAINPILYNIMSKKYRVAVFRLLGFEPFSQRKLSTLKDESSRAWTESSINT

The target is the same in test [2]. The experiment in a line: FRET or BRET; competition: time-resolved energy transfer between purified GHSR labeled with Lumi4-Tb at its N-terminus and dy647-labeled ghrelin (0.1 µM range), increasing competitor; GHSR in 12 nm nanodiscs (MSP1E3D1(-) scaffold); isolated receptor without G protein.

As a reminder, the Ki is the equilibrium dissociation constant of an inhibitor or competing ligand from its target.

Consider “LEAP2(1-14), the active N-terminal region of the natural inverse agonist LEAP2 (peptide)”, for which the inhibitory constant (Ki) in test [1] turned out to be 4.6 nM; in test [2], 6.7 nM.
